Reference: FireProtDB (doi:10.1016/0022-2836(92)90906-z)

B1: Ribonuclease, P00648 (parent)
chain: MMKMEGIALKKRLSWISVCLLVLVSAAGMLFSTAAKTETSSHKAHTEAQVINTFDGVADYLQTYHKLPDNYITKSEAQALGWVASKGNLADVAPGKSIGGDIFSNREGKLPGKSGRTWREADINYTSGFRNSDRILYSSDWLIYKTTDHYQTFTKIR

Variants of: B1
Settings: Bacillus amyloliquefaciens; pH 6.3; 25 °C; Urea; Fluorescence; MES 1.00 M; NaCl 613 mM; reversible: yes; structure 1BNI; whole UniProt chain shown

Row | Variant | ddG of mutation (higher = less stable) | denaturant m value | denaturant midpoint (higher = more stable) | unfolding free energy
1 | MMKMEGIALKKRLSWISVCLLVLVSAAGMLFSTAAKTETSSHKAHTEAQVINPFDGVADYLQTYHKLPDNYITKSEAQALGWVASKGNLADVAPGKSIGGDIFSNREGKLPGKSGRTWREADINYTSGFRNSDRILYSSDWLIYKTTDHYQTFTKIR [T53P] | 3.3 kcal/mol | 1.83 kcal/mol/M | 2.99 M | 5.5 kcal/mol
2 | MMKMEGIALKKRLSWISVCLLVLVSAAGMLFSTAAKTETSSHKAHTEAQVINTFGGVADYLQTYHKLPDNYITKSEAQALGWVASKGNLADVAPGKSIGGDIFSNREGKLPGKSGRTWREADINYTSGFRNSDRILYSSDWLIYKTTDHYQTFTKIR [D55G] | 1.3 kcal/mol | 1.89 kcal/mol/M | 3.97 M | 7.5 kcal/mol
3 | MMKMEGIALKKRLSWISVCLLVLVSAAGMLFSTAAKTETSSHKAHTEAQVINTFSGVADYLQTYHKLPDNYITKSEAQALGWVASKGNLADVAPGKSIGGDIFSNREGKLPGKSGRTWREADINYTSGFRNSDRILYSSDWLIYKTTDHYQTFTKIR [D55S] | 0.7 kcal/mol | 1.99 kcal/mol/M | 4.07 M | 8.1 kcal/mol
4 | MMKMEGIALKKRLSWISVCLLVLVSAAGMLFSTAAKTETSSHKAHTEAQVINTFDGVAGYLQTYHKLPDNYITKSEAQALGWVASKGNLADVAPGKSIGGDIFSNREGKLPGKSGRTWREADINYTSGFRNSDRILYSSDWLIYKTTDHYQTFTKIR [D59G] | 0.2 kcal/mol | 1.87 kcal/mol/M | 3.97 M | 8.6 kcal/mol
5 | MMKMEGIALKKRLSWISVCLLVLVSAAGMLFSTAAKTETSSHKAHTEAQVINTFDGVASYLQTYHKLPDNYITKSEAQALGWVASKGNLADVAPGKSIGGDIFSNREGKLPGKSGRTWREADINYTSGFRNSDRILYSSDWLIYKTTDHYQTFTKIR [D59S] | 0.9 kcal/mol | 1.85 kcal/mol/M | 4.29 M | 7.9 kcal/mol
6 | MMKMEGIALKKRLSWISVCLLVLVSAAGMLFSTAAKTETSSHKAHTEAQVINTFDGVADYLQAYHKLPDNYITKSEAQALGWVASKGNLADVAPGKSIGGDIFSNREGKLPGKSGRTWREADINYTSGFRNSDRILYSSDWLIYKTTDHYQTFTKIR [T63A] | 0.5 kcal/mol | 1.88 kcal/mol/M | 4.43 M | 8.3 kcal/mol
7 | MMKMEGIALKKRLSWISVCLLVLVSAAGMLFSTAAKTETSSHKAHTEAQVINTFDGVADYLQTGHKLPDNYITKSEAQALGWVASKGNLADVAPGKSIGGDIFSNREGKLPGKSGRTWREADINYTSGFRNSDRILYSSDWLIYKTTDHYQTFTKIR [Y64G] | 4 kcal/mol | 1.91 kcal/mol/M | 2.5 M | 4.8 kcal/mol
8 | MMKMEGIALKKRLSWISVCLLVLVSAAGMLFSTAAKTETSSHKAHTEAQVINTFDGVADYLQTSHKLPDNYITKSEAQALGWVASKGNLADVAPGKSIGGDIFSNREGKLPGKSGRTWREADINYTSGFRNSDRILYSSDWLIYKTTDHYQTFTKIR [Y64S] | 2 kcal/mol | 2.08 kcal/mol/M | 3.25 M | 6.8 kcal/mol
9 | MMKMEGIALKKRLSWISVCLLVLVSAAGMLFSTAAKTETSSHKAHTEAQVINTFDGVADYLQTYAKLPDNYITKSEAQALGWVASKGNLADVAPGKSIGGDIFSNREGKLPGKSGRTWREADINYTSGFRNSDRILYSSDWLIYKTTDHYQTFTKIR [H65A] | 1.9 kcal/mol | 1.91 kcal/mol/M | 3.62 M | 6.9 kcal/mol
10 | MMKMEGIALKKRLSWISVCLLVLVSAAGMLFSTAAKTETSSHKAHTEAQVINTFDGVADYLQTYAKLPDNYITKSEAQALGWVASKGNLADVAPGKSIGGDIFSNREGKLPGKSGRTWREADINYTSGFRNSDRILYSSDLLIYKTTDHYQTFTKIR [H65A W141L] | 2.3 kcal/mol | 1.94 kcal/mol/M | 3.36 M | 6.5 kcal/mol
11 | MMKMEGIALKKRLSWISVCLLVLVSAAGMLFSTAAKTETSSHKAHTEAQVINTFDGVADYLQTYDKLPDNYITKSEAQALGWVASKGNLADVAPGKSIGGDIFSNREGKLPGKSGRTWREADINYTSGFRNSDRILYSSDWLIYKTTDHYQTFTKIR [H65D] | 2.2 kcal/mol | 2.04 kcal/mol/M | 3.26 M | 6.6 kcal/mol
12 | MMKMEGIALKKRLSWISVCLLVLVSAAGMLFSTAAKTETSSHKAHTEAQVINTFDGVADYLQTYGKLPDNYITKSEAQALGWVASKGNLADVAPGKSIGGDIFSNREGKLPGKSGRTWREADINYTSGFRNSDRILYSSDWLIYKTTDHYQTFTKIR [H65G] | 0.7 kcal/mol | 1.91 kcal/mol/M | 4.21 M | 8.1 kcal/mol
13 | MMKMEGIALKKRLSWISVCLLVLVSAAGMLFSTAAKTETSSHKAHTEAQVINTFDGVADYLQTYKKLPDNYITKSEAQALGWVASKGNLADVAPGKSIGGDIFSNREGKLPGKSGRTWREADINYTSGFRNSDRILYSSDWLIYKTTDHYQTFTKIR [H65K] | 0.9 kcal/mol | 1.99 kcal/mol/M | 3.96 M | 7.9 kcal/mol
14 | MMKMEGIALKKRLSWISVCLLVLVSAAGMLFSTAAKTETSSHKAHTEAQVINTFDGVADYLQTYKKLPDNYITKSEAQALGWVASKGNLADVAPGKSIGGDIFSNREGKLPGKSGRTWREADINYTSGFRNSDRILYSSDLLIYKTTDHYQTFTKIR [H65K W141L] | 2.7 kcal/mol | 1.8 kcal/mol/M | 3.37 M | 6.1 kcal/mol
15 | MMKMEGIALKKRLSWISVCLLVLVSAAGMLFSTAAKTETSSHKAHTEAQVINTFDGVADYLQTYNKLPDNYITKSEAQALGWVASKGNLADVAPGKSIGGDIFSNREGKLPGKSGRTWREADINYTSGFRNSDRILYSSDWLIYKTTDHYQTFTKIR [H65N] | 1.8 kcal/mol | 1.89 kcal/mol/M | 3.71 M | 7 kcal/mol
16 | MMKMEGIALKKRLSWISVCLLVLVSAAGMLFSTAAKTETSSHKAHTEAQVINTFDGVADYLQTYRKLPDNYITKSEAQALGWVASKGNLADVAPGKSIGGDIFSNREGKLPGKSGRTWREADINYTSGFRNSDRILYSSDWLIYKTTDHYQTFTKIR [H65R] | 1 kcal/mol | 1.97 kcal/mol/M | 3.97 M | 7.8 kcal/mol

Row | Variant | ddG of mutation (higher = less stable) | denaturant m value | denaturant midpoint (higher = more stable) | unfolding free energy
17 | MMKMEGIALKKRLSWISVCLLVLVSAAGMLFSTAAKTETSSHKAHTEAQVINTFDGVADYLQTYRKLPDNYITKSEAQALGWVASKGNLADVAPGKSIGGDIFSNREGKLPGKSGRTWREADINYTSGFRNSDRILYSSDLLIYKTTDHYQTFTKIR [H65R W141L] | 1.6 kcal/mol | 2.06 kcal/mol/M | 3.48 M | 7.2 kcal/mol
18 | MMKMEGIALKKRLSWISVCLLVLVSAAGMLFSTAAKTETSSHKAHTEAQVINTFDGVADYLQTYSKLPDNYITKSEAQALGWVASKGNLADVAPGKSIGGDIFSNREGKLPGKSGRTWREADINYTSGFRNSDRILYSSDWLIYKTTDHYQTFTKIR [H65S] | 2.1 kcal/mol | 1.96 kcal/mol/M | 3.4 M | 6.7 kcal/mol
19 | MMKMEGIALKKRLSWISVCLLVLVSAAGMLFSTAAKTETSSHKAHTEAQVINTFDGVADYLQTYSKLPDNYITKSEAQALGWVASKGNLADVAPGKSIGGDIFSNREGKLPGKSGRTWREADINYTSGFRNSDRILYSSDLLIYKTTDHYQTFTKIR [H65S W141L] | 2.8 kcal/mol | 1.86 kcal/mol/M | 3.24 M | 6 kcal/mol
20 | MMKMEGIALKKRLSWISVCLLVLVSAAGMLFSTAAKTETSSHKAHTEAQVINTFDGVADYLQTYHKLPDNYIDKSEAQALGWVASKGNLADVAPGKSIGGDIFSNREGKLPGKSGRTWREADINYTSGFRNSDRILYSSDWLIYKTTDHYQTFTKIR [T73D] | 0 kcal/mol | 1.95 kcal/mol/M | 4.53 M | 8.8 kcal/mol
21 | MMKMEGIALKKRLSWISVCLLVLVSAAGMLFSTAAKTETSSHKAHTEAQVINTFDGVADYLQTYHKLPDNYITGSEAQALGWVASKGNLADVAPGKSIGGDIFSNREGKLPGKSGRTWREADINYTSGFRNSDRILYSSDWLIYKTTDHYQTFTKIR [K74G] | -0.2 kcal/mol | 2.11 kcal/mol/M | 4.29 M | 9 kcal/mol
22 | MMKMEGIALKKRLSWISVCLLVLVSAAGMLFSTAAKTETSSHKAHTEAQVINTFDGVADYLQTYHKLPDNYITKAEAQALGWVASKGNLADVAPGKSIGGDIFSNREGKLPGKSGRTWREADINYTSGFRNSDRILYSSDWLIYKTTDHYQTFTKIR [S75A] | -0.6 kcal/mol | 1.98 kcal/mol/M | 4.78 M | 9.4 kcal/mol
23 | MMKMEGIALKKRLSWISVCLLVLVSAAGMLFSTAAKTETSSHKAHTEAQVINTFDGVADYLQTYHKLPDNYITKGEAQALGWVASKGNLADVAPGKSIGGDIFSNREGKLPGKSGRTWREADINYTSGFRNSDRILYSSDWLIYKTTDHYQTFTKIR [S75G] | 0.5 kcal/mol | 1.88 kcal/mol/M | 4.34 M | 8.3 kcal/mol
24 | MMKMEGIALKKRLSWISVCLLVLVSAAGMLFSTAAKTETSSHKAHTEAQVINTFDGVADYLQTYHKLPDNYITKSAAQALGWVASKGNLADVAPGKSIGGDIFSNREGKLPGKSGRTWREADINYTSGFRNSDRILYSSDWLIYKTTDHYQTFTKIR [E76A] | 1.2 kcal/mol | 1.94 kcal/mol/M | 3.93 M | 7.6 kcal/mol
25 | MMKMEGIALKKRLSWISVCLLVLVSAAGMLFSTAAKTETSSHKAHTEAQVINTFDGVADYLQTYHKLPDNYITKSGAQALGWVASKGNLADVAPGKSIGGDIFSNREGKLPGKSGRTWREADINYTSGFRNSDRILYSSDWLIYKTTDHYQTFTKIR [E76G] | 2.2 kcal/mol | 1.81 kcal/mol/M | 3.64 M | 6.6 kcal/mol
26 | MMKMEGIALKKRLSWISVCLLVLVSAAGMLFSTAAKTETSSHKAHTEAQVINTFDGVADYLQTYHKLPDNYITKSSAQALGWVASKGNLADVAPGKSIGGDIFSNREGKLPGKSGRTWREADINYTSGFRNSDRILYSSDWLIYKTTDHYQTFTKIR [E76S] | 1.2 kcal/mol | 1.93 kcal/mol/M | 3.94 M | 7.6 kcal/mol
27 | MMKMEGIALKKRLSWISVCLLVLVSAAGMLFSTAAKTETSSHKAHTEAQVINTFDGVADYLQTYHKLPDNYITKSEAAALGWVASKGNLADVAPGKSIGGDIFSNREGKLPGKSGRTWREADINYTSGFRNSDRILYSSDWLIYKTTDHYQTFTKIR [Q78A] | 0.3 kcal/mol | 1.83 kcal/mol/M | 4.62 M | 8.5 kcal/mol
28 | MMKMEGIALKKRLSWISVCLLVLVSAAGMLFSTAAKTETSSHKAHTEAQVINTFDGVADYLQTYHKLPDNYITKSEAGALGWVASKGNLADVAPGKSIGGDIFSNREGKLPGKSGRTWREADINYTSGFRNSDRILYSSDWLIYKTTDHYQTFTKIR [Q78G] | 1.1 kcal/mol | 1.89 kcal/mol/M | 4.07 M | 7.7 kcal/mol
29 | MMKMEGIALKKRLSWISVCLLVLVSAAGMLFSTAAKTETSSHKAHTEAQVINTFDGVADYLQTYHKLPDNYITKSEASALGWVASKGNLADVAPGKSIGGDIFSNREGKLPGKSGRTWREADINYTSGFRNSDRILYSSDWLIYKTTDHYQTFTKIR [Q78S] | -0.3 kcal/mol | 2.05 kcal/mol/M | 4.44 M | 9.1 kcal/mol
30 | MMKMEGIALKKRLSWISVCLLVLVSAAGMLFSTAAKTETSSHKAHTEAQVINTFDGVADYLQTYHKLPDNYITKSEAQALAWVASKGNLADVAPGKSIGGDIFSNREGKLPGKSGRTWREADINYTSGFRNSDRILYSSDWLIYKTTDHYQTFTKIR [G81A] | 2.7 kcal/mol | 2.06 kcal/mol/M | 2.97 M | 6.1 kcal/mol
31 | MMKMEGIALKKRLSWISVCLLVLVSAAGMLFSTAAKTETSSHKAHTEAQVINTFDGVADYLQTYHKLPDNYITKSEAQALDWVASKGNLADVAPGKSIGGDIFSNREGKLPGKSGRTWREADINYTSGFRNSDRILYSSDWLIYKTTDHYQTFTKIR [G81D] | 3.2 kcal/mol | 1.99 kcal/mol/M | 2.83 M | 5.6 kcal/mol
32 | MMKMEGIALKKRLSWISVCLLVLVSAAGMLFSTAAKTETSSHKAHTEAQVINTFDGVADYLQTYHKLPDNYITKSEAQALHWVASKGNLADVAPGKSIGGDIFSNREGKLPGKSGRTWREADINYTSGFRNSDRILYSSDWLIYKTTDHYQTFTKIR [G81H] | 2.3 kcal/mol | 2.02 kcal/mol/M | 3.21 M | 6.5 kcal/mol
